Key:
[1] = assay type: in vivo; settings: for increase in Vd when co-infused with heparin: 5 μg protein in 5 μl, 0.2 μl/min, with heparin (18 μg) vs infused alone; for Vd/Vi ratio: low volume (5 μl) infusion, apparently with heparin co-infusion (FIG. 2b)
Procedure: (§1) The animals were anesthetized with ketamine (10 mg/kg) and xylazine (3 mg/Kg) via intraperitoneal injection and placed in a Kopf small animal stereotactic frame. A sagittal incision was made through the skin and a burr hole was placed into the skull with a twist drill. The cannula coordinates were: 0.5 mm anterior to bregma, 2.8 mm to the right of bregma, and 5 mm below the dura.
(§2) The infusion apparatus consisted of a hydraulic drive serially connected to a syringe pump. This depressed the plunger of one of two 250 μl Hamilton syringes connected by cannulas made from polyetheretherketone (PEEK) tubing (inner diameter 250 μm) and filled with distilled water. One of the 250 μl Hamilton syringes was secured to the stereotactic frame and was contiguous with an infusate-filled 10 or 50 μl Hamilton syringe. Since the system was non-compliant (zero dead space), the compression of the syringe pump of the infusion apparatus led to the measured release of infusate from the 10 or 50 μl Hamilton syringe in a uniform fashion. All infusions were performed with a 32 g cannula at 0.2 μl/min (6).
The vehicle was 4% mannitol in 10 mM HEPES. […]
(§3) The brains were cut into 40 μm serial coronal sections on a cryostat. Frozen sections were collected in a series in antifreeze solutions and stored at −70° C. Every 12th section was stained for immunohistochemistry.
Sections were washed in phosphate buffered saline (PBS) and incubated in 3% H2O2 for 20 minutes to block endogenous peroxidase activity. […] The sections were then incubated for 1 hour in biotinylated anti-mouse IgG secondary antibody (Vector Labs, 1:300). Antibody binding was visualized with streptavidin horseradish peroxidase (Vector Labs, 1:300) and VIP chromogen (Vector Labs). Sections were then coverslipped and examined under light microscopy. Vd was measured using NIH image analysis software.
The volume of distribution of BSA and the GDNF family of trophic factors was analyzed using a Macintosh-based image analysis system. Images of stained tissue slices were captured by a CCD camera using Adobe Photoshop software. Using NIH Image Analysis software, the area of distribution of infused protein in each tissue section was automatically determined using a threshold of 50% of the maximal stained optical density. The sum of the areas of infusion was used to determine the Vd in each striatum.

dopamine utilization = test: Dopamine utilization: striatal DOPAC/DA ratio by HPLC 4 days after intrastriatal infusion; assay type: in vivo, rat
Procedure: In the study analyzing dopamine metabolism following trophic factor administration, the animals were infused with 5 μg of NTN in 5 μl of vehicle with and without heparin (2.5 units) and sacrificed after 4 days. The vehicle was 4% mannitol in 10 mM HEPES. After completing infusion, the cannula was withdrawn at 1 mm/minute. Following the procedure, the animals used for immunohistochemical analysis were intracardially perfused with 4% paraformaldehyde. Brains were harvested and immersed overnight in 4% paraformaldehyde. The brains were cryoprotected through immersion in graded sucrose solution (20-30%) and frozen at […]. Animals to be used in HPLC studies were euthenized and the brains were harvested and fresh frozen at −70°.
Animals were sacrificed 4 days after intrastriatal infusion of 5 μl vehicle with 18 μg of heparin, 5 μg of NTN in 5 μl of vehicle or 5 μg of NTN in 5 μl of vehicle with 18 μg of heparin. After decapitation, the brains were rapidly removed and chilled in ice for 4 minutes. They were sliced 1 mm anterior and 2 mm posterior to the injection site using a chilled plastic brain mold. For biochemical studies, frozen punches from the striatum were taken from the injected and uninjected sides for comparison. […] Dopamine (DA), serotonin (5-HT) and their metabolites were measured by HPLC using Ultrasphere C-18 ion pair column, 5μ, 4.6 mm×25 cm (Beckman 235329): a Waters 717 plus autosampler, Waters 510 pump at 0.8 ml/min, and an amperometric electrochemical detector (EiCom CB-100) set at 0.78 V. The mobile phase contained 2-1 deionized water, 2.8 g L-heptanesulfonic acid sodium salt, 0.17 g EDTA, 20 ml triethylamine and 50 ml acetonitrile, pH was adjusted to 2.6 with 13 ml of 85% phosphoric acid. The results were recorded and analyzed with Waters Millenium 2010 Chromatography Manager software. Protein concentration in the tissue pellet was determined using the BCA Protein Assay Kit (Pierce #23225). The results are expressed as nM/hr/mg of protein.

[2] = Histological examination of infused brains for hemorrhage and tissue damage; assay type: in vivo, rat; settings: heparin 0.5 units/μl, low volume studies
Procedure: Studies were conducted to establish whether CED could be used to distribute trophic factors within the GDNF family over volumes that might be relevant to larger primate brains. High volume infusions (20 μl) of NTN with heparin were able to cover significant volumes of the rat brain (FIG. 3). […] Maximum Vd attained following co-infusion with heparin was 37.3 mm^3, compared to a maximum Vd of 11.0 mm^3 in control animals (FIG. 3). At this infusion volume, in 4 out of 6 animals in which NTN was co-infused with heparin, the striatum was completely stained, as opposed to none of the subjects infused with NTN alone. There was no evidence of hemorrhage (H&E stain) in any of the specimens following the high volume infusions.
All brains had well demarcated areas of antibody staining following immunohistochemistry. In all brains, there was no evidence of tissue damage, with the exception of the needle track and some non-specific drill-induced cortical lesions. There was no evidence of hemorrhage in any animal at 0 or 4 days after infusion.
This emphasizes the importance of receptor binding in drug distribution as well.

[3] = CED high volume (20 μl) NTN intrastriatal infusion, volume of distribution by immunohistochemistry; assay type: in vivo, rat
Procedure: as §1, §2
The vehicle was 4% mannitol in 10 mM HEPES. In the high volume experiment, 50 μg of NTN in 20 μl of vehicle with (n=6) and without (n=6) heparin (71 μg) was delivered into the striatum.
as §3
Sections were washed in phosphate buffered saline (PBS) and incubated in 3% H2O2 for 20 minutes to block endogenous peroxidase activity. […] Vd was measured using NIH image analysis software.
The volume of distribution of BSA and the GDNF family of trophic factors was analyzed using a Macintosh-based image analysis system. […] Using NIH Image Analysis software, the area of distribution of infused protein in each tissue section was automatically determined using a threshold of 50% of the maximal stained optical density. […]

In the case of Artemin, the “increase in Vd when co-infused with heparin” value (“increase in Vd when co-infused” for short) [1] is reported as “greater than 10 fold”.

For heparin [reference compound], the “DOPAC/DA levels compared to the uninjected (left) striatum” value (dopamine utilization; 5 μl vehicle with 18 μg heparin, 4 days) was “no change” and the “gross or microscopic hemorrhage” value [2] was “no evidence of gross or microscopic hemorrhage”.

B1: GDNF (protein, UniProt P39905 78-211, looked up)
Glial cell line-derived …: SPDKQMAVLPRRERNRQAAAANPENSRGKGRRGQRGKNRGCVLTAIHLNVTDLGLGYETKEELIFRYCSGSCDAAETTYDKILKNLSRNRRLVSDKVGQACCRPIAFDDDLSFLDDNLVYHILRKHSAKRCGCI
notes: glial cell line-derived neurotrophic factor, trophic factor provided by Genentech
With B1 the “increase in Vd when co-infused” value [1] was 5 fold, the Vd/Vi ratio [1] was 5.0 and the “effect of heparin co-infusion on Vd” value ([1]; rat, in vivo) was “significantly increased”.

B2: Neurturin (protein, UniProt Q99748 96-197, looked up)
Neurturin: ARLGARPCGLRELEVRVSELGLGYASDETVLFRYCAGACEAAARVYDLGLRRLRQRRRLRRERVRAQPCCRPTAYEDEVSFLDAHSRYHTVHELSARECACV
notes: trophic factor of the GDNF ligand family
In the case of B2, the “increase in Vd when co-infused” value [1] is reported as 7 fold, the Vd/Vi ratio [1] is reported as 4.6 and the DOPAC/DA ratio (dopamine utilization; 5 μg NTN in 5 μl, with or without heparin 18 μg, 4 days after infusion, mean +/- S.E.) is reported as 146+/−14.2 percentage of the uninjected h. For the same molecule, the “DOPAC/DA ratio compared to the vehicle+heparin group” value (dopamine utilization; 4 days after right striatal infusion, Fisher test) was “significantly increased”, the “animals in which the striatum was completely stained” value ([3]; 20 μl infusion, n=6 per group) was “none” and the “Maximum Vd” value ([3]; rat, in vivo) was 11.0 mm^3. For the same molecule, the Vd ([3]; rat, in vivo) was 7.7+/−1.1 mm^3.
